According to paper PMC13466322, “Immunoglobulin Superfamily Protein BTNL9 Functions as a Non-Canonical Transcriptional Regulator to Suppress NSCLC Through Cell Cycle and p53 Pathways” (International Journal of Molecular Sciences, 2026):

Target: the molecule itself
Test: native gel or EMSA; lysates of A549 and NCI-H460 cells in RIPA buffer; non-reducing LDS sample buffer; NativePAGE Bis-Tris 3-12% gel, run 1.5 h; Western blot; interpreted qualitatively

B1: Butyrophilin-like 9 (BTNL9), wild type, FLAG-tagged or AM-tagged (natural protein, human, UniProt Q6UXG8-1 35-535, looked up)
chain: SSEVKVLGPEYPILALVGEEVEFPCHLWPQLDAQQMEIRWFRSQTFNVVHLYQEQQELPGRQMPAFRNRTKLVKDDIAYGSVVLQLHSIIPSDKGTYGCRFHSDNFSGEALWELEVAGLGSDPHLSLEGFKEGGIQLRLRSSGWYPKPKVQWRDHQGQCLPPEFEAIVWDAQDLFSLETSVVVRAGALSNVSVSIQNLLLSQKKELVVQIADVFVPGASAWKSAFVATLPLLLVLAALALGVLRKQRRSREKLRKQAEKRQEKLTAELEKLQTELDWRRAEGQAEWRAAQKYAVDVTLDPASAHPSLEVSEDGKSVSSRGAPPGPAPGHPQRFSEQTCALSLERFSAGRHYWEVHVGRRSRWFLGACLAAVPRAGPARLSPAAGYWVLGLWNGCEYFVLAPHRVALTLRVPPRRLGVFLDYEAGELSFFNVSDGSHIFTFHDTFSGALCAYFRPRAHDGGEHPDPLTICPLPVRGTGVPEENDSDTWLQPYEPADPALDWW
notes: bZIP domain annotated at residues 281-317; Two differently tagged copies of the same wild-type protein (FLAG copy as bait, AM-tag copy as prey) are written as one molecule; Each copy carries only one of the two tags; also called WT; BTNL9-FLAG; source: A549 and NCI-H460 cells, lentiviral infection, in lysate
With B1 the “stoichiometry N” value was 2.
